Here are results for 9 sequences from patent US9096681B2, “XBP1, CD138, and CS1 peptides” (Dana-Farber Cancer Institute, Inc., priority 2008, dated 2015).

Assay [1] addresses T1, HLA-A2 molecules on the surface of human T2 cells (Homo sapiens, UniProt P04439, D140Y/D185E/D98H/E176V/E277Q/G131W/G231S/I119V/I121R/I166T/I218V/L300P/L318F/N151K/N90K/P208A/P217A/Q86G/Q94H/R138H/R169H/T345S). It is filed as binding. To be noted: non-spliced XBP1 peptides (FIG. 1), 50 μg/ml peptide (30 μg/ml influenza peptide), overnight.
Assay [2] deals with T1, HLA-A2 molecules on the surface of human T2 cells. Kind of assay: Peptide stability assay (peptide/HLA-A2 binding stability post-Brefeldin A). To be noted: for HLA-A2 binding stability (HLA-A2 up-regulation on T2 cells) versus native counterpart: spliced XBP1 heteroclitic peptides (FIG. 4).
In assay [3] the test system is CD3+ T lymphocytes from normal HLA-A2+ donors. Put plainly: Phenotypic analysis of peptide-stimulated T cells (flow cytometry). The assay is classed as cell-based, human. The following applies: after peptide stimulation; for percentage of CD8+ T cells: unstimulated cultures 33%; for percentage of CD4+ T cells: unstimulated cultures 64%. As to the method:
Peptide-specific CTL (that is, XBP1, CD138, or CS1-peptide-specific CTL) were generated ex vivo by repeated stimulation of CD3^+ T lymphocytes obtained from normal HLA-A2^+ donors with XBP1, CD138, or CS1-peptide-pulsed antigen-presenting cells (APC), either T2 cells or mDC. In brief, T2 cells were washed and resuspended in serum-free AIM-V medium (Gibco BRL) and pulsed overnight at 37° C. with 50 μg/ml of the appropriate XBP1 or CD138 peptide. Peptide-pulsed APC were washed, counted, irradiated at 10 Gy and used to prime CD3^+ T cells at a 1:40 T2/peptide (stimulator)-to-CD3^+ T cell (responder) ratio in AIM-V medium supplemented with 10% human AB serum (BioWhittaker, Walkersville, Md.). The T cell cultures were restimulated every seven days with irradiated APC/peptide for a total of 4 cycles to generate XBP1 peptide-specific CTL (XBP1-CTL), CD138 peptide-specific CTL (CD138-CTL), or CS1 peptide-specific CTL (CS1-CTL). It is clear from the foregoing that “XBP1-CTL,” “CD138-CTL,” and “CS1-CTL” referred to herein are not clonal (or homogenous) populations. Rather, the XBP1-CTL, CD138-CTL, and CS1-CTL cells are heterogenous populations of lymphocytes comprising XBP1 peptide-, CD138 peptide-, or CS1 peptide-specific CTL along with non-specific CTL, APCs, and other lymphocytes obtained from the normal donors. 50 U/ml of interleukin-2 (IL-2) was added to the cultures two days after the second stimulation. Control T cell cultures (unstimulated with peptide) were maintained in AIM-V medium supplemented with 10% human AB serum containing 50 U/ml IL-2.
To determine the phenotype of the XBP1-CTL, CD4, or CD8 expression by the cells was detected using anti-CD4-PE or anti-CD8-FITC mouse anti-human mAbs. In addition, a variety of other expression markers were detected on the cells using combinations of either FITC-conjugated anti-CD69/PE-conjugated-anti-CD45RO or FITC-conjugated anti-CD45RA-FITC/PE-conjugated anti-CCR7 mouse anti-human mAbs. Alternatively, HLA-A2 expression by U266, McCAR, ML-2 and MM1S cells was determined using an FITC-conjugated anti-HLA-A2 anti-human mAb. After contacting the cells with antibodies for 15 minutes at 4° C., the cells were washed and analyzed using a FACSort™ flow cytometer with CellQuest v2.1 software (Becton Dickinson).
Cytotoxic T lymphocytes (CTL) are defined phenotypically by the expression of distinct cell surface antigens (e.g., CD8). Cell surface antigens can also be used to further define CTL as naïve or activated memory cells. For example, naïve humanCTL can be identified by the presence of CD45RA^+/CCR7^+, whereas activated human memory cells can be identified as CD69^+/CD45RO^+. Flow cytometry was performed on populations of human T cells stimulated with the heteroclitic peptides to determine the percentage of CTL that were naïve or activated memory cells. […] The unstimulated control T cells or CD138-CTL were further examined for naïve (CD45RA^+/CCR7^+) or activated memory (CD69^+/CD45RO^+) cell status.
(A flow cytometer gives signals particle by particle.)

The test system of assay [4] is CD8+ T cells. Kind of assay: Expansion of P2 peptide-specific CS1-CTL (HLA-A*0201 P2-tetramer / anti-CD8 flow analysis). The assay is classed as cell-based, human. To be noted: after the fourth re-stimulation with peptide-presenting dendritic cells.
Assay [5] deals with McCAR cells. Kind of assay: CTL proliferation by CFSE tracking, stimulation with McCAR cells. The assay is classed as cell-based, human. The following applies: cultured with McCAR cells, day 4. As to the method: XBP1-CTL or CD138-CTL were washed twice in PBS (Gibco-BRL) and resuspended in RPMI-1640 culture medium at a concentration of 1×10^6 cells/ml. CFSE (Molecular Probes, Eugene, Oreg.) in the form of a 5 mM stock solution in DMSO was added to the CTL to give a final concentration of 5 μM and incubated for 10 minutes at 37° C. in a CO2 incubator protected from light. After incubation, a volume of ice-cold PBS (containing 2% FCS) equivalent to five-times the volume of the CTL cells was added to the cells to quench the reaction. Cells were incubated for 5 minutes on ice, centrifuged and resuspended in fresh PBS (containing 2% FCS) after a total of three washings. CFSE-labeled T cells were adjusted to a concentration of 2×10^6 cells/ml with RPMI culture medium, stimulated with 2×10^5 cells/ml McCAR cells, ML-2 cells, MM1S cells, or no cells. The stimulated CFSE-labeled cells were examined on by FFC analysis day 4.
XBP1-CTL were exposed to carboxyfluoroscein succinimidyl ester (CFSE) as described above. Proliferation of the XBP1-CTL in response to stimulation with various tumor lines was determined by measuring the amount of CFSE in the cells. CFSE is a membrane permeable dye, which is taken up by cells. […] Thus, the number of cell divisions can be determined as the inverse of the concentration of dye in each cell of a population.

Turning to “KLLLENQLL (listed as Homo sapiens) [XBP1110-118, native non-spliced XBP1 peptide]”, in assay [1], the “affinity for HLA-A2, HLA-A2-mean fluorescence intensity (MFI)” value (from here on “affinity for HLA-A2”) is given as “significant affinity for HLA-A2 affinity, although less than that of XBP1184-192”. Consider “YILDNLDPV (listed as Influenza virus) [heteroclitic peptide derived from native spliced XBP1 #1p]”, for which, in assay [2], the “HLA-A2 binding stability (HLA-A2 up-regulation on T2 cells) versus native counterpart” value is “did not exhibit a significant increase in HLA-A2 stability over its native counterpart”. As to “GLVGLIFAV (listed as Homo sapiens) [CD138 #2p, native CD138 peptide]”, in assay [3], the “percentage of CD8+ T cells” value is listed as 82% and the “percentage of CD4+ T cells” value was 15%. “LLREKTHGL (listed as Homo sapiens) [XBP1117-125, native non-spliced XBP1 peptide]”: the “affinity for HLA-A2” value in assay [1] is “significant affinity for HLA-A2 affinity, although less than that of XBP1184-192”. For “SLFVLGLFL (listed as Homo sapiens) [P2, native CS1 peptide]”, the “percentage of cells bound by both HLA-A*0201 P2-tetramer and anti-CD8 antibody” value in assay [4] is on record as “Approximately 4.1%”. For “VLTLQIQSL (ILAVLTLQI; listed as Homo sapiens) [XBP1192-200, native non-spliced XBP1 peptide]”, the “affinity for HLA-A2” value in assay [1] is listed as “significant affinity for HLA-A2 affinity, although less than that of XBP1184-192”. As for “YLFPQLISV (listed as Homo sapiens) [SP XBP1 #3M, heteroclitic spliced XBP1 367-375 peptide]”, in assay [3] (control T cells 4%), the “percentage of CD69+/CD45RO+ (activated memory) cells” value is listed as 64%. For the same sequence, in assay [3], the “percentage of CD8+ T cells” value was found to be 75% and the “percentage of CD4+ T cells” value was found to be 18%. Also, the “CTL proliferation (M1 gated, CFSE)” value in assay [5] turned out to be 42%. Moreover, the “time for which higher level of HLA-A2 up-regulation was maintained” value in assay [2] (in Brefeldin A after removing unbound peptide (FIG. 4)) was 6 h. For the same sequence, in assay [2], the “HLA-A2 binding stability (HLA-A2 up-regulation on T2 cells) versus native counterpart” value is reported as “increase in HLA-A2 up-regulation on T2 cells”. As to “ILAVLTLQI (listed as Homo sapiens) [XBP1189-197, native non-spliced XBP1 peptide]”, the “affinity for HLA-A2” value in assay [1] is on record as “significant affinity for HLA-A2 affinity, although less than that of XBP1184-192”.

Regarding “RMSELEQQV (listed as Homo sapiens) [XBP193-101, native non-spliced XBP1 peptide]”, the “affinity for HLA-A2” value in assay [1] is given as “significant affinity for HLA-A2 affinity, although less than that of XBP1184-192”.
